According to patent US20140179700A1:

Key:
[1] = system: myelin basic protein (MBP) (Millipore)
[2] = biological target: myelin basic protein (MBP) (Millipore); assay: cell-based or functional assay

Substance | phosphorylation of MBP by immunoprecipitated ERK1/2 (anti-phosphoMBP immunoblot) [1] | MBP phosphorylation by ERK1/2 from epinephrine-treated SS RBCs compared to ERK1/2 from sham-treated cells (fold) [2] [fold]
ERK1/2 immunoprecipitated from SS RBCs | ERK1/2 immunoprecipitated from sham-treated SS RBCs was capable of phosphorylating MBP to some extent | 
ERK1/2 immunoprecipitated from SS RBCs (enzyme) |  | 2.1
